The data set can be described thus: total protein half-life in vivo (active degradation + dilution); higher = more stable protein.
The mark [1] stands for this setting: E. coli NCM3722 delta-clpP delta-lon delta-hslV, growth: N-lim chemostat, doubling time 6 h.
Setting [2] is: E. coli NCM3722 delta-clpP, growth: N-lim chemostat, doubling time 6 h.
Setting [3] is: E. coli NCM3722 delta-smpB, growth: N-lim chemostat, doubling time 6 h.
Where [4] appears, read: wild type E. coli NCM3722, growth: C-lim chemostat, doubling time 3 h.
Where [5] appears, read: wild type E. coli NCM3722, growth: C-lim chemostat, doubling time 6 h.
Where [6] appears, read: wild type E. coli NCM3722, growth: C-lim chemostat, doubling time 12 h.
[7] abbreviates: wild type E. coli NCM3722, growth: N-lim chemostat, doubling time 6 h.
Setting [8] is: wild type E. coli NCM3722, growth: N-lim chemostat, doubling time 12 h.
The mark [9] stands for this setting: wild type E. coli NCM3722, growth: P-lim chemostat, doubling time 6 h.
Where [10] appears, read: wild type E. coli NCM3722, growth: P-lim chemostat, doubling time 12 h.
Setting [11] is: E. coli NCM3722 delta-hslV, growth: N-lim chemostat, doubling time 6 h.
The mark [12] stands for this setting: E. coli NCM3722 delta-lon, growth: N-lim chemostat, doubling time 6 h.

7 sequences from the supplement of paper PMC11246515 can be followed below.

± gives the standard deviation of the averaged measurements. Where only a bound is given, the exact number is not on record here.

On to “MNSCDFRVFLQEFGTTVHLSLPGSVSEKERLLLKLLMQGMSVTEISQYRNRSAKTISHQKKQLFEKLGIQSDITFWRDIFFQYNPEIISATGSNSHRYINDNHYHHIVTPEAISLALENHEFKPWIQPVFCAQTGVLTGCEVLVRWEHPQTGIIPPDQFIPLAESSGLIVIMTRQLMKQTADILMPVKHLLPDNFHIGINVSAGCFLAAGFEKECLNLVNKLGNDKIKLVLELTERNPIPVTPEARAIFDSLHQHNITFALDDFGTGYATYRYLQAFPVDFIKIDKSFVQMASVDEISGHIVDNIVELARKPGLSIVAEGVETQEQADLMIGKGVHFLQGYLYSPPVPGNKFISEWVMKAGG”, for which the “total protein half-life in vivo” value was determined as 6.19 ± 0.079 h under setting [1]; 5.64 ± 0.26 h under setting [2]; 5.76 ± 0.27 h under setting [3]; 3.346 ± 0.027 h under setting [4]; 5.06 ± 0.71 h under setting [5]; 10.4 ± 2.6 h under setting [6]. Also, the “total protein half-life in vivo” value was 5.94 ± 0.41 h under setting [7], 10.9 ± 0.36 h under setting [8], 5.76 ± 0.1 h under setting [9] and 12.3 ± 1.1 h under setting [10].
With “MTINDSAISEQGMCEEEQVARIAWFYYHDGLTQSEISDRLGLTRLKVSRLLEKGHQSGIIRVQINSRFEGCLEYETQLRRQFSLQHVRVIPGLADADVGGRLGIGAAHMLMSLLQPQQMLAIGFGEATMNTLQRLSGFISSQQIRLVTLSGGVGSYMTGIGQLNAACSVNIIPAPLRASSADIARTLKNENCVKDVLLAAQAADVAIVGIGAVSQQDDATIIRSGYISQGEQLMIGRKGAVGDILGYFFDAKGDVVTNIKIHNELIGLPLSALKTIPVRVGVAGGENKAEAIAAAMKGGYINALVTDQDTAAAILRS”, the “total protein half-life in vivo” value stood at 5.64 ± 1.1 h under setting [1]; 5.69 ± 0.67 h under setting [2]; 4.76 ± 0.47 h under setting [11]; 4.58 ± 0.45 h under setting [12]; 4.6 ± 0.058 h under setting [3]; 2.88 ± 0.2 h under setting [4]. Moreover, the “total protein half-life in vivo” value by setting is: under setting [5], 4.551 ± 0.016 h; under setting [6], 7.78 h; under setting [7], 4.64 ± 0.19 h; under setting [8], 8.2 ± 0.58 h; under setting [9], 5.08 h.
For “MIAITGATGQLGHYVIESLMKTVPASQIVAIVRNPAKAQALAAQGITVRQADYGDEAALTSALQGVEKLLLISSSEVGQRAPQHRNVINAAKAAGVKFIAYTSLLHADTSPLGLADEHIETEKMLADSGIVYTLLRNGWYSENYLASAPAALEHGVFIGAAGDGKIASATRADYAAAAARVISEAGHEGKVYELAGDSAWTLTQLAAELTKQSGKQVTYQNLSEADFAAALKSVGLPDGLADMLADSDVGASKGGLFDDSKTLSKLIGHPTTTLAESVSHLFNVNN”, the “total protein half-life in vivo” value is, setting by setting: under setting [1], 5.42 ± 0.13 h; under setting [2], 4.93 ± 0.067 h; under setting [11], 4.99 ± 0.61 h; under setting [12], 5.3 ± 0.25 h; under setting [3], 4.569 ± 0.035 h; under setting [4], 3.2 ± 0.18 h. Further, the “total protein half-life in vivo” value runs as follows: under setting [5], 5.84 ± 0.31 h; under setting [6], 8.9 ± 2 h; under setting [7], 5.15 ± 0.28 h; under setting [8], 8.33 h; under setting [9], 6.72 ± 0.65 h; under setting [10], 13.1 ± 1.4 h.
For the sequence “MTKLQLKYRELKIISVIAASENISHAATVLGIAQANVSKYLADFESKVGLKVFDRTTRQLMLTPFGTALLPYINDMLDRNEQLNNFIADYKHEKRGRVTIYAPTGIITYLSKHVIDKIKDIGDITLSLKTCNLERNAFYEGVEFPDDCDVLISYAPPKDESLVASFITQYAVTAYASQRYLEKHPISRPDELEHHSCILIDSMMIDDANIWRFNVAGSKEVRDYRVKGNYVCDNTQSALELARNHLGIVFAPDKSVQSDLQDGTLVPCFQQPYEWWLDLVAIFRKREYQPWRVQYVLDEMLREIRHQLAQSQQLRPEQAAESED”, the “total protein half-life in vivo” value under setting [1] is 5.588 ± 0.0059 h; the “total protein half-life in vivo” value under setting [2] stood at 5.07 ± 0.4 h; the “total protein half-life in vivo” value under setting [11] is 4.7 ± 0.45 h; the “total protein half-life in vivo” value under setting [12] was 4.98 ± 0.36 h; the “total protein half-life in vivo” value under setting [3] was 4.54 ± 0.47 h; the “total protein half-life in vivo” value under setting [4] came out at 2.74 ± 0.18 h. Moreover, the “total protein half-life in vivo” value under setting [6] came to 10.9 ± 2 h; the “total protein half-life in vivo” value under setting [7] came to 4.15 ± 0.18 h; the “total protein half-life in vivo” value under setting [8] was 7.04 ± 0.43 h; the “total protein half-life in vivo” value under setting [9] came out at 6.03 ± 0.88 h; the “total protein half-life in vivo” value under setting [10] is 10.1 ± 0.15 h.
For “MDQALLDGGYRCYTGEKIDVYFNTAICQHSGNCVRGNGKLFNLKRKPWIMPDEVDVATVVKVIDTCPSGALKYRHK [P0AF59]”, the “total protein half-life in vivo” value runs as follows: under setting [1], 5.57 ± 0.28 h; under setting [2], 5.03 h; under setting [11], 5.21 ± 0.78 h; under setting [12], 6.02 ± 0.5 h; under setting [3], 4.29 ± 0.66 h; under setting [4], 1.83 h. Further, the “total protein half-life in vivo” value runs as follows: under setting [6], 8.02 h; under setting [7], 5.6 ± 1 h; under setting [8], 8.71 ± 1.1 h; under setting [10], 10.5 ± 0.21 h.
With “MRSAQVYRWQIPMDAGVVLRDRRLKTRDGLYVCLREGEREGWGEISPLPGFSQETWEEAQSVLLAWVNNWLAGDCELPQMPSVAFGVSCALAELTDTLPQAANYRAAPLCNGDPDDLILKLADMPGEKVAKVKVGLYEAVRDGMVVNLLLEAIPDLHLRLDANRAWTPLKGQQFAKYVNPDYRDRIAFLEEPCKTRDDSRAFARETGIAIAWDESLREPDFAFVAEEGVRAVVIKPTLTGSLEKVREQVQAAHALGLTAVISSSIESSLGLTQLARIAAWLTPDTIPGLDTLDLMQAQQVRRWPGSTLPVVEVDALERLL”, the “total protein half-life in vivo” value runs as follows: under setting [11], 3.779 ± 0.0063 h; under setting [12], 4.33 ± 0.7 h; under setting [3], 3.7 ± 0.25 h; under setting [4], 3.25 ± 0.19 h; under setting [5], 5.71 ± 0.44 h; under setting [6], 13.2 h. Further, the “total protein half-life in vivo” value reads like this: under setting [7], 3.88 ± 0.14 h; under setting [8], 6.68 ± 0.4 h; under setting [9], 5.7 ± 0.073 h; under setting [10], 11.5 ± 0.8 h.
As to “MSQLCPCGSAVEYSLCCHPYVSGEKVAPDPEHLMRSRYCAFVMQDADYLIKTWHPSCGAAALRAELMAGFAHTEWLGLTVFEHCWQDADNIGFVSFVARFTEGGKTGAIIERSRFLKENGQWYYIDGTRPQFGRNDPCPCGSGKKFKKCCGQ”, the “total protein half-life in vivo” value is, setting by setting: under setting [1], 5.73 ± 0.5 h; under setting [11], greater than 8 h; under setting [3], 5.47 h; under setting [5], 6.31 h; under setting [7], 5.43 ± 0.68 h; under setting [8], 8.52 ± 0.57 h. Further, under setting [9], the “total protein half-life in vivo” value was determined as 5.3 ± 0.3 h.
